Source: patent US20140274782A1 (Stanford University, published 2014)

Tests used:
Assay in all cases: ProtoArray, GST-treated control array;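 as to GST Average SNR: human protein microarray (about 9500 recombinant proteins) incubated overnight with GST alone plus SAM cofactor as the negative control for G9a SET domain methylation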
[1] = biological target: T1, GHRL-ghrelin/obestatin preprohormone (GHRL) (human, UniProt Q9UBU3 1-117, limits assumed)
T1 sequence (looked up): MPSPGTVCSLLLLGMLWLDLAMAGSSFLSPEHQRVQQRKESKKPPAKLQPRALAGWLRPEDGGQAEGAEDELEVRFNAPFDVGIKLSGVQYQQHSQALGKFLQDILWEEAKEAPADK
Procedure: Briefly, a ProtoArray (Invitrogen, version 5.0) was incubated overnight with 50 μg of GST or recombinant GSTtagged G9a SET domain and the cofactor SAM.
Arrays were analyzed using GenePix Pro 6.1 software (Molecular Devices) and feature values were assigned to proteins using the array list provided by Invitrogen. We designated the following criteria for “hits”: GST array signal-to-noise ratio (SNR) less than or equal to 1.5, G9a array SNR greater than or equal to 10, and a difference between the G9a array SNR and the GST array SNR of greater than or equal to 12. Hits were individually visually validated. Proteins were removed from the list of potential substrates if irregular array features appeared to interfere with the array spots or SNR calculations.

[2] = biological target: T2, RHBDD1-rhomboid domain containing 1 (RHBDD1) (human, UniProt Q8TEB9 1-315, limits assumed)
T2 sequence (looked up): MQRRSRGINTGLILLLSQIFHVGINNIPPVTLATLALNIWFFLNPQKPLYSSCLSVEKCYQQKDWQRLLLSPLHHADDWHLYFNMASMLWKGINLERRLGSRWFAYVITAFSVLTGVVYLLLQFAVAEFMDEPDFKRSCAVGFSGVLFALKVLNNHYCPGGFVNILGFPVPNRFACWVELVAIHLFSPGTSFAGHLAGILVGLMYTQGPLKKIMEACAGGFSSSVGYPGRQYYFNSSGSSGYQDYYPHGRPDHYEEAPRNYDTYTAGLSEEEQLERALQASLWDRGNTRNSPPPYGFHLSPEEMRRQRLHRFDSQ

[3] = biological target: T3, TGDS-TDP-glucose 4,6-dehydratase (TGDS) (human, UniProt O95455 1-350)
T3 sequence (looked up): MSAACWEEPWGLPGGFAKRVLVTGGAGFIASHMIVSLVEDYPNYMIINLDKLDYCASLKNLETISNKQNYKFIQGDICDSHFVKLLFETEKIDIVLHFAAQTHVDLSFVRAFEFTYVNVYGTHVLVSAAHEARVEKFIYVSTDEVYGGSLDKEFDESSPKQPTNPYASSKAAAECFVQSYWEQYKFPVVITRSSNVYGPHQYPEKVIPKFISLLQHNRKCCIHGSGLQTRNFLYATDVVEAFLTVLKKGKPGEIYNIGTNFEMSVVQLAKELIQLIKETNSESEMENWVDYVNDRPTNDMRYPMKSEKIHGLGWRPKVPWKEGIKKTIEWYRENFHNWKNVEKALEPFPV

[4] = biological target: T4, CUTC-cutC copper transporter homolog (E. coli) (CUTC) (human, UniProt Q9NTM9 1-273)
T4 sequence (looked up): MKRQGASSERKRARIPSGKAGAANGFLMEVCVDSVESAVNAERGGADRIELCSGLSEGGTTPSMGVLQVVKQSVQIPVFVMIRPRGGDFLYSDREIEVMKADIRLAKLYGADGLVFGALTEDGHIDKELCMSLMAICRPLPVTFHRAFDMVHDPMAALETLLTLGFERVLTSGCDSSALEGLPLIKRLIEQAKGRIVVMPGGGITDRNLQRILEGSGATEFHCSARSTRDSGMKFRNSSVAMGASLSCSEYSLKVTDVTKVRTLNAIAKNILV

[5] = biological target: LOC145788-PREDICTED: Homo sapiens hypothetical LOC145788 (LOC145788) (human)
[6] = biological target: T5, RASSF4-Ras association (RaIGDS/AF-6) domain family 4 (RASSF4) (human, UniProt Q9H2L5 1-321, limits assumed)
T5 sequence (looked up): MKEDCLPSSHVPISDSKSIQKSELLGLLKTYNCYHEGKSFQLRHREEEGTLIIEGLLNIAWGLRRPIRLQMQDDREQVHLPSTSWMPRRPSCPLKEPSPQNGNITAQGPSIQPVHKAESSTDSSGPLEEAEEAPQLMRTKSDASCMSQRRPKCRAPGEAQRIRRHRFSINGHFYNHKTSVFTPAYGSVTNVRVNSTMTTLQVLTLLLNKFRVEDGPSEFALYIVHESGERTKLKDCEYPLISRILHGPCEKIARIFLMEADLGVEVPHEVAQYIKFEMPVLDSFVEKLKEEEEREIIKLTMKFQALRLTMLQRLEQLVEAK

[7] = biological target: T6, Magmas-mitochondria-associated protein involved in granulocyte-macrophage colony-stimulating factor signal … (human, UniProt Q9Y3D7 1-125)
T6 sequence (looked up): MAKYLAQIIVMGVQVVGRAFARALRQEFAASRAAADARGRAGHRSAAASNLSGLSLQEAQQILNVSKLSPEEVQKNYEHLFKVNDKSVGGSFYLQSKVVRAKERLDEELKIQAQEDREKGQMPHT

[8] = biological target: T7, SMYD3-SET and MYND domain containing 3 (SMYD3) (human, UniProt Q9H7B4 1-428, limits assumed)
T7 sequence (looked up): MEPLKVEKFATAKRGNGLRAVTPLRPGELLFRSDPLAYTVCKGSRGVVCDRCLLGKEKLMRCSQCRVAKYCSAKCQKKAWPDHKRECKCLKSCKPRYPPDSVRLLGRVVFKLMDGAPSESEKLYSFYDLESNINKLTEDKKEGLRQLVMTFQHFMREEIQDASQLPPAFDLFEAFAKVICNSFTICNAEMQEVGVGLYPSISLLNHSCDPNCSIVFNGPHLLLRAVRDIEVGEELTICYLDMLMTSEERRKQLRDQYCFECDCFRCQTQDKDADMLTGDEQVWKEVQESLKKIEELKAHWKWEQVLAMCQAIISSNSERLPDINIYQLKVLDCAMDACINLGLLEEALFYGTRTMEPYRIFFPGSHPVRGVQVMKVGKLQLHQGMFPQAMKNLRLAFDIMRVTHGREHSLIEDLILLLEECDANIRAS

[9] = biological target: ARL6IP1-ADP-ribosylation factor-like 6 interacting protein 1 (ARL6IP1) (human, UniProt Q15041 1-203, limits assumed)
ARL6IP1-ADP-ribosylation factor-like 6 interacting protein 1 (ARL6IP1), sequence (Q15041 whole entry): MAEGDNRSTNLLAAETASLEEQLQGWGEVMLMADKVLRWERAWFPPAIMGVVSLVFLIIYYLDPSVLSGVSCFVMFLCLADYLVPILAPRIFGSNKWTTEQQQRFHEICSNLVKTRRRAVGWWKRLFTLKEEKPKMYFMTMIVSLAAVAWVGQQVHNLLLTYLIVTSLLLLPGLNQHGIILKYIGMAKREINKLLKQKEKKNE

[10] = biological target: LOC400500-PREDICTED: Homo sapiens hypothetical LOC400500 (LOC400500) (human)
[11] = biological target: FTH1-ferritin, heavy polypeptide 1 (FTH1) (human, UniProt P02794 1-183)
FTH1-ferritin, heavy polypeptide 1 (FTH1), sequence (P02794 whole entry): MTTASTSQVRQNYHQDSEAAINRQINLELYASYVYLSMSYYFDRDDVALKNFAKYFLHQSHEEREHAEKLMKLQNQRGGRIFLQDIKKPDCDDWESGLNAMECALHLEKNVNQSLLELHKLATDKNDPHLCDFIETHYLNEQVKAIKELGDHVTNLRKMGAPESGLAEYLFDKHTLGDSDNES

[12] = biological target: FTL-ferritin, light polypeptide (FTL) (human, UniProt P02792 1-175)
FTL-ferritin, light polypeptide (FTL), sequence (P02792 whole entry): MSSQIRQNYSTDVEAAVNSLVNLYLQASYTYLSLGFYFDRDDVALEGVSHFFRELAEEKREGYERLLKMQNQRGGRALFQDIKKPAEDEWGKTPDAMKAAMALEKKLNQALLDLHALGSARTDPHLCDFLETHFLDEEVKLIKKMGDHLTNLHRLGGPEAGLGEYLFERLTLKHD

B1: 3× Flag-3×MBT (designed binder)
chain: EEWSSSQPATGEKKECWSWESYLEEQKAITAPVSLFQDSQAVTHNKNGFKLGMKLEGIDPQHPSMYFILTVAEVCGYRLRLHFDGYSECHDFWVNANSPDIHPAGWFEKTGHKLQPPKGYKEEEFSWSQYLRSTRAQAAPKHLFVSQSHSPPPLGFQVGMKLEAVDRMNPSLVCVASVTDVVDSRFLVHFDNWDDTYDYWCDPSSPYIHPVGWCQKQGKPLTPPQDYPDPDNFCWEKYLEETGASAVPTWAFKVRPPHSFLVNMKLEAVDRRNPALIRVASVEDVEDHRIKIHFDGWSHGYDFWIDADHPDIHPAGWCSKTGHPLQPPLGPREPSSASPGG
notes: also called Flag-tagged 3×MBT; 3xFlag-3xMBT; not shown: made by PreScission cleavage of GST-3× Flag-3×MBT
- binding result [1]: no binding (tested: GST array SNR <= 1.5)
- GST Average SNR [2]: -0.11
- GST Average SNR [3]: 1.15
- GST Average SNR [4]: 0.667
- GST Average SNR [5]: 0.224
- GST Average SNR [6]: 1.16
- GST Average SNR [7]: -1.16
- GST Average SNR [8]: 1.3
- GST Average SNR [9]: 1.05
- GST Average SNR [10]: -0.119
- GST Average SNR [11]: -0.802
- GST Average SNR [12]: 0.717
